Key:
[1] = target: T1, CNBP (ZNF9) (Homo sapiens, UniProt P62633 1-177); assay: CD (G4 unfolding); 100 mM K+ folding; 8 uM, 1:1; EMSA: 20 mM HEPES pH 8.0, 10 mM MgCl2, 1 mM EDTA, 0.5 ug/uL heparin, 1 mM DTT, 1 ug/uL BSA, 10% glycerol, 100 mM KCl or LiCl, 0.75 uM RNA, 30 min 37 C; CD: 10 mM Tris-HCl pH 7.5 + 100/200 mM KCl, protein incubation 30 min 37 C, spectra at 20 C; conditions: protein: recombinant; tags: tag-free (expressed from pET-32a-TEV-CNBP, tag removed); intramolecular G4
[2] = target: T1, CNBP (ZNF9); assay: EMSA; folded in 200 mM Li+ or K+; EMSA: 20 mM HEPES pH 8.0, 10 mM MgCl2, 1 mM EDTA, 0.5 ug/uL heparin, 1 mM DTT, 1 ug/uL BSA, 10% glycerol, 100 mM KCl or LiCl, 0.75 uM RNA, 30 min 37 C; CD: 10 mM Tris-HCl pH 7.5 + 100/200 mM KCl, protein incubation 30 min 37 C, spectra at 20 C; conditions: protein: recombinant; tags: tag-free (expressed from pET-32a-TEV-CNBP, tag removed); no G4 formed; predicted 4-bp stem-loop
[3] = target: T1, CNBP (ZNF9); assay: EMSA; folded in 100 mM Li+; 100 mM LiCl in binding; slightly higher affinity than in K+; EMSA: 20 mM HEPES pH 8.0, 10 mM MgCl2, 1 mM EDTA, 0.5 ug/uL heparin, 1 mM DTT, 1 ug/uL BSA, 10% glycerol, 100 mM KCl or LiCl, 0.75 uM RNA, 30 min 37 C; CD: 10 mM Tris-HCl pH 7.5 + 100/200 mM KCl, protein incubation 30 min 37 C, spectra at 20 C; conditions: protein: recombinant; tags: tag-free (expressed from pET-32a-TEV-CNBP, tag removed); intramolecular G4; minor self-assembled multimer band in Li+
[4] = target: T1, CNBP (ZNF9); assay: CD (G4 unfolding); 200 mM K+ folding; 8 uM, 1:1; EMSA: 20 mM HEPES pH 8.0, 10 mM MgCl2, 1 mM EDTA, 0.5 ug/uL heparin, 1 mM DTT, 1 ug/uL BSA, 10% glycerol, 100 mM KCl or LiCl, 0.75 uM RNA, 30 min 37 C; CD: 10 mM Tris-HCl pH 7.5 + 100/200 mM KCl, protein incubation 30 min 37 C, spectra at 20 C; conditions: protein: recombinant; tags: tag-free (expressed from pET-32a-TEV-CNBP, tag removed); intramolecular G4
[5] = target: T1, CNBP (ZNF9); assay: EMSA; folded in 200 mM Li+; 100 mM LiCl in binding; slightly higher affinity than in K+; EMSA: 20 mM HEPES pH 8.0, 10 mM MgCl2, 1 mM EDTA, 0.5 ug/uL heparin, 1 mM DTT, 1 ug/uL BSA, 10% glycerol, 100 mM KCl or LiCl, 0.75 uM RNA, 30 min 37 C; CD: 10 mM Tris-HCl pH 7.5 + 100/200 mM KCl, protein incubation 30 min 37 C, spectra at 20 C; conditions: protein: recombinant; tags: tag-free (expressed from pET-32a-TEV-CNBP, tag removed); intramolecular G4 (two-quartet)

T1 sequence (P62633 whole entry): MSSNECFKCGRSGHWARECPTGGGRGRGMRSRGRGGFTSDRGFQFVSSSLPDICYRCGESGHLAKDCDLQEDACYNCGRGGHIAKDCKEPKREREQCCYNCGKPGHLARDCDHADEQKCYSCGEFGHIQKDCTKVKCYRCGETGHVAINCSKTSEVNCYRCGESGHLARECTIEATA

B1: -23,877 (structured_RNA)
RNA: GGAUAUGGUUGGUUUGG
binding result [1]: binds

B2: +28,903 (structured_RNA)
RNA: GGCUGGCAAUGGCGG
binding result [2]: no binding

B3: +3467 (structured_RNA)
RNA: GGAGGAGGUGUUGCAGGA
binding result [3]: binds

B4: -13,963 (structured_RNA)
RNA: GGAUCUGGGUAAGGAAGG
binding result [4]: binds

B5: +644 (structured_RNA)
RNA: GGUAAUAAAGGAGCUGGUGG
binding result [5]: binds

Source: paper PMC7961906, “CNBP Binds and Unfolds In Vitro G-Quadruplexes Formed in the SARS-CoV-2 Positive and Negative Genome Strands”
